Results published in paper PMC3542820.

Target: T1, Rfa2-His from WT cells (HT41), dephosphorylated G1 form (Candida albicans, UniProt Q59Z33 1-272)
T1 sequence: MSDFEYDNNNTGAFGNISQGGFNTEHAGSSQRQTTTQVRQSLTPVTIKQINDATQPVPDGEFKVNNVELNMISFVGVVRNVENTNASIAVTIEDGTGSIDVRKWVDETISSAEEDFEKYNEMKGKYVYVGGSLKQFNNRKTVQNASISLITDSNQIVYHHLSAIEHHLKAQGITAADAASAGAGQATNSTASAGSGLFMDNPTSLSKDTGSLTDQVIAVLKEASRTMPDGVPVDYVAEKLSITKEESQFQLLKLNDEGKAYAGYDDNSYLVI
Experiment: EMSA

B1: FITC-dsDNA 30 bp (dsDNA)
DNA 1: CCCCTCTCCTTCTTGGCCTCTTCCTTCCCC
DNA 2: GGGGAAGGAAGAGGCCAAGAAGGAGAGGGG
binding result: binds
